Measured values taken from US20240384250A1, “FIBROBLAST GROWTH FACTOR 23 MODULATING COMPOUNDS” (THE UAB RESEARCH FOUNDATION, priority 2021, published 2024).
Entries after “also recorded” stand apart in the source; their conditions may differ.

Experiments:
FGF23 binding to FGFR3c = target: T1, FGF23 binding to FGFR3c (Homo sapiens, UniProt P22607+Q9GZV9); assay: Plate-based binding, FGF23 coated, then sKL, heparin or PBS, then Fc-FGFR; conditions: with sKL, with heparin 0.4 USP, or alone
T1 construct: Fc-coupled FGFR ectodomains were immobilized on protein A/G beads; purchased R&D Systems 2604FG025/CF or 2629FG025/CF; 766FR050
T1 sequence (Q9GZV9 25-251): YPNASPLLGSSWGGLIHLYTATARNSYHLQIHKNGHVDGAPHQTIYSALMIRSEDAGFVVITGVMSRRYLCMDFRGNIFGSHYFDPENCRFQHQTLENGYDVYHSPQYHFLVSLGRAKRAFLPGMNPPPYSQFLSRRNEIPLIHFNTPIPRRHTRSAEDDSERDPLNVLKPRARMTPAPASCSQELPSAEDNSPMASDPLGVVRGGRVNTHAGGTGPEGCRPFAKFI
T1 sequence (P22607 23-375 limits assumed): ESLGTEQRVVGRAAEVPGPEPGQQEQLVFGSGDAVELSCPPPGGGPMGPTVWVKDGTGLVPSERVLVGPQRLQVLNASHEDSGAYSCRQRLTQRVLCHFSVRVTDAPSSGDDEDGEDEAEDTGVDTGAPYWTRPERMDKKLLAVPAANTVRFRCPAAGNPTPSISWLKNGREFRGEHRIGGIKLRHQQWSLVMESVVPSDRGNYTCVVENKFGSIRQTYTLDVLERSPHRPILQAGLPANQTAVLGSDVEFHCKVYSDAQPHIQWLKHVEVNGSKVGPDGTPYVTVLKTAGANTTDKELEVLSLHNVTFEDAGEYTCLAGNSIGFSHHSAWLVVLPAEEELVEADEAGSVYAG
Procedure: (§1) Proteins were coated on 96-well plates (MaxiSorp; 439454, Thermo Fisher Scientific), and proteins were added to wells in 100 μl of enzyme-linked immunosorbent assay (ELISA) coating buffer (E107, Bethyl Laboratories) with a lid placed overtop and incubated at 4° C. overnight. Plates were washed 5× with 350 μl of assay buffer (50 mM Tris [pH 7.4], 200 mM NaCl, 0.01% Tween 20) on a 50 TS microplate washer (BioTek). Plates were blocked for 1 hour in 200 μl of assay buffer with 0.5% BSA. Plates were washed as before, and proteins were incubated on plates in 100 μl of assay buffer with 0.5% BSA. Proteins or heparin was incubated in orders described in the respective figure legends. Assays using FLAG-tag-based detection were incubated with anti-FLAG coupled to HRP at 1:20,000, and assays using Fc detection were incubated with anti-human Fc coupled to HRP at 1:10,000. Plates were washed as above, and 100 μl of 3,3′,5,5′-tetramethylbenzidine (TMB) substrate (E102, Bethyl Laboratories) was added for 15 to 20 minutes until positive wells developed a dark blue color. Reactions were stopped with ELISA stop solution (E115, Bethyl Laboratories) and analyzed using the Synergy HI plate reader (BioTek) at 450 nm wavelength. […] As a control to remove background absorbance values, wells were coated with an equal amount of BSA to match the amount of protein coated in experimental wells and treated the same as experimental wells. To study the effects of sKL on the binding between paracrine FGFs and FGFRs, plates were run as above except coated with paracrine FGFs. Fc-FGFR1 was preincubated with sKL or vehicle for 60 minutes, and then the combination was added to wells and the assay was run as before.

FGF23 binding to FGFR2c = target: T2, FGF23 binding to FGFR2c (Homo sapiens, UniProt P21802); assay: as above; conditions: with sKL, with heparin 0.4 USP, or alone
T2 construct: Fc-coupled FGFR ectodomains were immobilized on protein A/G beads; purchased R&D Systems 2604FG025/CF or 2629FG025/CF; 712FR050
T2 sequence (P21802 22-377 limits assumed): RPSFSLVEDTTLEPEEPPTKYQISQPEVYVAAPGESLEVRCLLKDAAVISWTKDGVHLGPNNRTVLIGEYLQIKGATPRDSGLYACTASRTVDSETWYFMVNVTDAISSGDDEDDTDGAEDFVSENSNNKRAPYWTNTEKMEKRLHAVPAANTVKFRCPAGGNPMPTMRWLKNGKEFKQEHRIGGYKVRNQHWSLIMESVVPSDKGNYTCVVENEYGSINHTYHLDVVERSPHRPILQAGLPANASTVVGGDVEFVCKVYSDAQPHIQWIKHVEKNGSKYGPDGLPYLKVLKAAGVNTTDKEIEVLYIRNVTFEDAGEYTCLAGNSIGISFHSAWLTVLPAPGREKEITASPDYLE
Procedure: as §1

[1] = Half-life of recombinant sKL in the circulation of rats; type: in vivo, rat; conditions: tail vein injection 100 μg/kg
Procedure: To determine the half-life of recombinant sKL protein in the circulation, rats were injected with the Strep-tagged mouse sKL that was purified as described above. Each group consisted of 3 male Sprague Dawley rats (9 weeks of age and weighing approximately 300 g). For injections and bleeding, rats were anesthetized with 2.5% isoflurane. For injections, a shielded i.v. catheter (BD Insyte Autoguard 0.7×19 mm, catalog no. 381412) was inserted into the lateral tail vein and flushed with 100 μl of isotonic saline (0.9%). One milliliter of purified sKL protein dissolved in isotonic saline (100 μg/kg) or isotonic saline was then injected, and the catheter was flushed again with 100 μl of isotonic saline. For bleeding, a shielded i.v. catheter was inserted into the lateral tail vein. Blood samples (300 μl) were taken after 1, 3, 5, 10, 15, 30, and 60 minutes as well as 3, 6, 12, and 48 hours. For collections from 15 minutes to 48 hours postinjection, a separate i.v. catheter was inserted each time to draw blood. For collections from 1 to 15 minutes post-sKL injection, the same i.v. catheter was used, and to exclude contamination with the previous draw, the catheter was flushed with isotonic saline between each sample. […] Serum was then aliquoted and stored at approximately […] before analysis. For the sKL activity assay, wells were coated with 500 ng of mouse FGF23 in 100 μl of coating buffer (E107, Bethyl Laboratories) at 4° C. overnight. Plates were washed 5× at 350 μl of assay buffer (50 mM Tris, [pH 7.4] 200 mM NaCl, 0.01% Tween 20) on a 50 TS microplate washer (BioTek). Plates were blocked for 1 hour in 200 μl of assay buffer with 0.5% BSA. Plates were washed and incubated with 30 μl per well and 70 μl of assay buffer with 0.5% BSA. Standards were run at noted concentrations by using purified Strep-tagged mouse sKL protein with 30 μl of control serum and 70 μl of assay buffer with 0.5% BSA added to ensure consistency. All samples and standards were run in triplicates. After 1 hour, plates were washed, and 150 ng of Fc-FGFR1c were incubated on plates in 100 μl of assay buffer with 0.5% BSA. After 1 hour, plates were washed and incubated with anti-human Fc-HRP at 1:10,000. Plates were washed as above and 100 μl of TMB substrate (E102, Bethyl Laboratories) was added for 15 to 20 minutes until positive wells developed a dark blue color. Reactions were stopped with ELISA stop solution (E115, Bethyl Laboratories) and analyzed using the Synergy HI plate reader (BioTek) at 450 nm wavelength. Amounts of sKL were calculated by taking the slope of the standard curve and calculating where the sample points fit in.

binding of coated FGF23 to Fc-FGFR2c (FGF23 binding to FGFR2c): no binding
B1: sKL: recombinant soluble α-klotho ectodomain, mouse aa 35-982 and human aa 34-981, FLAG- or Strep/His-tagged, purified from HEK293 cells (protein)
chain: EPGDGAQTWARFSRPPAPEAAGLFQGTFPDGFLWAVGSAAYQTEGGWQQHGKGASIWDTFTHHPLAPPGDSRNASLPLGAPSPLQPATGDVASDSYNNVFRDTEALRELGVTHYRFSISWARVLPNGSAGVPNREGLRYYRRLLERLRELGVQPVVTLYHWDLPQRLQDAYGGWANRALADHFRDYAELCFRHFGGQVKYWITIDNPYVVAWHGYATGRLAPGIRGSPRLGYLVAHNLLLAHAKVWHLYNTSFRPTQGGQVSIALSSHWINPRRMTDHSIKECQKSLDFVLGWFAKPVFIDGDYPESMKNNLSSILPDFTESEKKFIKGTADFFALCFGPTLSFQLLDPHMKFRQLESPNLRQLLSWIDLEFNHPQIFIVENGWFVSGTTKRDDAKYMYYLKKFIMETLKAIKLDGVDVIGYTAWSLMDGFEWHRGYSIRRGLFYVDFLSQDKMLLPKSSALFYQKLIEKNGFPPLPENQPLEGTFPCDFAWGVVDNYIQVDTTLSQFTDLNVYLWDVHHSKRLIKVDGVVTKKRKSYCVDFAAIQPQIALLQEMHVTHFRFSLDWALILPLGNQSQVNHTILQYYRCMASELVRVNITPVVALWQPMAPNQGLPRLLARQGAWENPYTALAFAEYARLCFQELGHHVKLWITMNEPYTRNMTYSAGHNLLKAHALAWHVYNEKFRHAQNGKISIALQADWIEPACPFSQKDKEVAERVLEFDIGWLAEPIFGSGDYPWVMRDWLNQRNNFLLPYFTEDEKKLIQGTFDFLALSHYTTILVDSEKEDPIKYNDYLEVQEMTDITWLNSPSQVAVVPWGLRKVLNWLKFKYGDLPMYIISNGIDDGLHAEDDQLRVYYMQNYINEALKAHILDGINLCGYFAYSFNDRTAPRFGLYRYAADQFEPKASMKHYRKIIDSNGFPGPETLERFCPEEFTVCTECSFFHTRKS
modifications: left off: small tags and cut ends
notes: recombinant soluble α-klotho ectodomain, mouse aa 35-982 and human aa 34-981, FLAG- or Strep/His-tagged, purified from HEK293 cells
binding of coated FGF23 to Fc-FGFR3c (FGF23 binding to FGFR3c): lower affinity; also recorded: weaker binding
time postinjection from which sKL could no longer be detected [1]: ≥ 3 h
time post-injection after which sKL levels were reduced by about half ([1]; earlier time points): approximately 10 minutes
half-life in the circulation ([1]; serum, listed as recombinant sKL protein): approximately 10 minutes
serum sKL level at the 15-minute time point ([1]; versus vehicle): high levels of sKL were detected
